Assay results as given in patent US20260008817A1, “CYCLIC PEPTIDE OR SALT THEREOF, AND USES THEREOF” (FUJIFILM Corporation, priority 2023, published 2026).
Positions of bridges follow the written chain, without caps; N, C: chain ends. No end group written: not given here. COCH2 = acetyl group that carries the bridge

biological target: T1, Recombinant Human FGFR1 alpha (IIIc) Fc Chimera Protein (Homo sapiens, UniProt P11362); experiment: ELISA binding affinity of enzymatically synthesized peptide to FGFR; conditions: ELISA luminescence signal at 10 nmol/L peptide, SEQ ID NO: 239 standardized to 1; enzyme synthesis product
T1 construct: purchased R&D systems 658-FR-050
T1 sequence (P11362 with tags, fused parts or gaps limits assumed): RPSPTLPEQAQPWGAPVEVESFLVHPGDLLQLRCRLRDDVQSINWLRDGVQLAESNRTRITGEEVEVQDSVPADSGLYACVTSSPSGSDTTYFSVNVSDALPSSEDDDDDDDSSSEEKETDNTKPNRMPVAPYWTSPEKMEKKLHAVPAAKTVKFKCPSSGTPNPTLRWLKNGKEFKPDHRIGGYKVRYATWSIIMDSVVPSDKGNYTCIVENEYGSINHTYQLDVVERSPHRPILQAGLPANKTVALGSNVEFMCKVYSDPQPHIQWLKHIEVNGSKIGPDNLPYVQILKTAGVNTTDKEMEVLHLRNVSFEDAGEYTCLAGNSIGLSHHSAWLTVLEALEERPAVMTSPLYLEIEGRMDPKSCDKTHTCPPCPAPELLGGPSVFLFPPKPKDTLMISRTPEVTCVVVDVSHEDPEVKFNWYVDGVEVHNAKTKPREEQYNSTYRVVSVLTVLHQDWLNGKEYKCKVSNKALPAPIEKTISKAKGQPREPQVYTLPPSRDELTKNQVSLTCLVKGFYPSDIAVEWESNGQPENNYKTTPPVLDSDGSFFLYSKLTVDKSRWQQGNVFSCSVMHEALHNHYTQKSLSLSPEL
In short: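 Cell-free PUREfrex-translated cyclic peptides (Myc/HiBiT-tagged, quantified by HiBiT luminescence) bound 3 h at room temperature to immobilized FGFR1α(IIIc)-Fc, detected with anti-Myc and chemiluminescence. FGFR-specific signal at 10 nmol/L normalized to a reference cyclic peptide and graded A–D.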

Row | Substance | Evaluation result of binding affinity to FGFR
1 | 213 (ICVYTFDAHAHSLHAATTK(COCH2)I; thioether 2-19 (inferred)) [compound 213] | C (0.1 or more and less than 0.5)
2 | 214 (ICVYTFDAHAHSLHAALAK(COCH2)I; thioether 2-19 (inferred)) [compound 214] | C (0.1 or more and less than 0.5)
3 | 215 (ICVYTFDAHAHSLHAALGK(COCH2)I; thioether 2-19 (inferred)) [compound 215] | C (0.1 or more and less than 0.5)
4 | 216 (ICVYTFDAHAHSLHAALPK(COCH2)I; thioether 2-19 (inferred)) [compound 216] | C (0.1 or more and less than 0.5)
5 | 217 (ICVYTFDAHAHSLHAALVK(COCH2)I; thioether 2-19 (inferred)) [compound 217] | C (0.1 or more and less than 0.5)
6 | 218 (ICVYTFDAHAHSLHAALFK(COCH2)I; thioether 2-19 (inferred)) [compound 218] | C (0.1 or more and less than 0.5)
7 | 219 (ICVYTFDAHAHSLHAALNK(COCH2)I; thioether 2-19 (inferred)) [compound 219] | A (0.7 or more)
8 | 220 (ICVYTFDAHAHSLHAALQK(COCH2)I; thioether 2-19 (inferred)) [compound 220] | A (0.7 or more)
9 | 221 (ICVYTFDAHAHSLHAALSK(COCH2)I; thioether 2-19 (inferred)) [compound 221] | C (0.1 or more and less than 0.5)
10 | 222 (ICVYTFDAHAHSLHAALEK(COCH2)I; thioether 2-19 (inferred)) [compound 222] | C (0.1 or more and less than 0.5)
11 | 223 (ICVYTFDAHAHSLHAALRK(COCH2)I; thioether 2-19 (inferred)) [compound 223] | A (0.7 or more)
12 | 224 (ICVYTFDAHAHSLHAALHK(COCH2)I; thioether 2-19 (inferred)) [compound 224] | A (0.7 or more)
13 | 225 (ICVYTFDAHAHSLHAALTK(COCH2)A; thioether 2-19 (inferred)) [compound 225] | B (0.5 or more and less than 0.7)
14 | 226 (ICVYTFDAHAHSLHAALTK(COCH2)L; thioether 2-19 (inferred)) [compound 226] | C (0.1 or more and less than 0.5)
15 | 227 (ICVYTFDAHAHSLHAALTK(COCH2)V; thioether 2-19 (inferred)) [compound 227] | A (0.7 or more)
16 | 228 (ICVYTFDAHAHSLHAALTK(COCH2)F; thioether 2-19 (inferred)) [compound 228] | C (0.1 or more and less than 0.5)
17 | 229 (ICVYTFDAHAHSLHAALTK(COCH2)Y; thioether 2-19 (inferred)) [compound 229] | C (0.1 or more and less than 0.5)
18 | 230 (ICVYTFDAHAHSLHAALTK(COCH2)W; thioether 2-19 (inferred)) [compound 230] | A (0.7 or more)
19 | 231 (ICVYTFDAHAHSLHAALTK(COCH2)N; thioether 2-19 (inferred)) [compound 231] | C (0.1 or more and less than 0.5)
20 | 232 (ICVYTFDAHAHSLHAALTK(COCH2)Q; thioether 2-19 (inferred)) [compound 232] | A (0.7 or more)
21 | 233 (ICVYTFDAHAHSLHAALTK(COCH2)S; thioether 2-19 (inferred)) [compound 233] | C (0.1 or more and less than 0.5)
22 | 234 (ICVYTFDAHAHSLHAALTK(COCH2)T; thioether 2-19 (inferred)) [compound 234] | C (0.1 or more and less than 0.5)
23 | 235 (ICVYTFDAHAHSLHAALTK(COCH2)R; thioether 2-19 (inferred)) [compound 235] | A (0.7 or more)

Now from value to substance:

Row | Evaluation result of binding affinity to FGFR | Substance
24 | A (0.7 or more) | 236 (ICVYTFDAHAHSLHAALTK(COCH2)H; thioether 2-19 (inferred)) [compound 236]
25 | A (0.7 or more) | 237 (VCIYTFNHLAQTYWQSLNK(COCH2)V; thioether 2-19 (inferred)) [compound 237]
26 | C (0.1 or more and less than 0.5) | 238 (VCIWVFNRFAHTLKESLTK(COCH2)V; thioether 2-19 (inferred)) [compound 238]
27 | A (0.7 or more) | 239 (ACVWTFDRHAQEISQALHKV; not fully specified (residue 19, bridges); also: cyclic peptide, ring not given here) [compound 239]
28 | A (0.7 or more) | 240 (ACVYLFNWRATSYGKSLIK(COCH2)W; thioether 2-19 (inferred)) [compound 240]
29 | C (0.1 or more and less than 0.5) | 241 (HCKLYSYPLWYWPKWVFQTK(COCH2)E; thioether 2-20 (inferred)) [compound 241]
30 | B (0.5 or more and less than 0.7) | 242 (ACGVHQWEIGEWFGYRYYYK(COCH2)P; thioether 2-20 (inferred)) [compound 242]
31 | C (0.1 or more and less than 0.5) | 243 (QCYLPSWFYQKARLLFQYIK(COCH2)S; thioether 2-20 (inferred)) [compound 243]
32 | A (0.7 or more) | 244 (DCTQGKILTYSQALFSFGVK(COCH2)I; thioether 2-20 (inferred)) [compound 244]
33 | A (0.7 or more) | 245 (NCVYYAKPVFAHANRVWTYIK(COCH2)I; thioether 2-21 (inferred)) [compound 245]
34 | C (0.1 or more and less than 0.5) | 246 (PCIYTFDQSAIKYKIGFVLRK(COCH2)V; thioether 2-21 (inferred)) [compound 246]
35 | C (0.1 or more and less than 0.5) | 248 (QCWLQGPYWSDIKIYIYQHDK(COCH2)Y; thioether 2-21 (inferred)) [compound 248]
36 | C (0.1 or more and less than 0.5) | 249 (VCVRPIFIFSFRAPFNAVDWK(COCH2)I; thioether 2-21 (inferred)) [compound 249]
37 | C (0.1 or more and less than 0.5) | 251 (TCWTAWQWFGHWVPFVAK(COCH2)T; thioether 2-18 (inferred)) [compound 251]
38 | A (0.7 or more) | 252 (RCVYSFDPARYPYHLKK(COCH2)V; thioether 2-17 (inferred)) [compound 252]
39 | B (0.5 or more and less than 0.7) | 253 (TCFSPGQIWIWTHLVTAIRNK(COCH2)T; thioether 2-21 (inferred)) [compound 253]

Row | Evaluation result of binding affinity to FGFR | Substance
40 | C (0.1 or more and less than 0.5) | 254 (LCVYTFNWQQKFGHHLTK(COCH2)I; thioether 2-18 (inferred)) [compound 254]
41 | C (0.1 or more and less than 0.5) | 255 (FCTLWQFGNLVWTHESPFIK(COCH2)Q; thioether 2-20 (inferred)) [compound 255]
42 | A (0.7 or more) | 256 (DCVYQYDRNAHYWDTALVK(COCH2)V; thioether 2-19 (inferred)) [compound 256]
43 | C (0.1 or more and less than 0.5) | 257 (FCAWVVDYQELHQFWSIVQK(COCH2)I; thioether 2-20 (inferred)) [compound 257]
44 | A (0.7 or more) | 258 (VCVRPIFIFSFRAPFNAVDWK(COCH2)N; thioether 2-21 (inferred)) [compound 258]
45 | C (0.1 or more and less than 0.5) | 259 (TCNIWQFNPAARWGFHLVYK(COCH2)Y; thioether 2-20 (inferred)) [compound 259]
46 | C (0.1 or more and less than 0.5) | 260 (ICREVIVGSLYTWDGNRGFFKV; Description of Artificial Sequence: Cyclic peptide) [compound 260]
47 | C (0.1 or more and less than 0.5) | 261 (LCYINLFTHTKV; Description of Artificial Sequence: Cyclic peptide) [compound 261]
48 | C (0.1 or more and less than 0.5) | 262 (WCNFANVWTFNKS; Description of Artificial Sequence: Cyclic peptide) [compound 262]
49 | C (0.1 or more and less than 0.5) | 263 (QCYHIIVYTFVKP; Description of Artificial Sequence: Cyclic peptide) [compound 263]
50 | C (0.1 or more and less than 0.5) | 264 (VCIFTWDRVHWPVKV; Description of Artificial Sequence: Cyclic peptide) [compound 264]
51 | B (0.5 or more and less than 0.7) | 265 (VCIYTWDRQSWPVKL; Description of Artificial Sequence: Cyclic peptide) [compound 265]
52 | A (0.7 or more) | 266 (DCIWQWHPWSGYTKL; Description of Artificial Sequence: Cyclic peptide) [compound 266]
53 | A (0.7 or more) | 267 (DCIWQWTPTKSFQKL; Description of Artificial Sequence: Cyclic peptide) [compound 267]
54 | C (0.1 or more and less than 0.5) | 268 (SCIYQWDYVHWPIKL; Description of Artificial Sequence: Cyclic peptide) [compound 268]
